Positions count from the first letter of the chain named.
How the values were obtained:
[1] = target: T1, human EFNA4 expressed on cells (human, UniProt P52798 26-170); experiment: flow cytometry, MEC1 B-CLL cells (endogenous EFNA4), 10 µg/ml antibody
T1 sequence: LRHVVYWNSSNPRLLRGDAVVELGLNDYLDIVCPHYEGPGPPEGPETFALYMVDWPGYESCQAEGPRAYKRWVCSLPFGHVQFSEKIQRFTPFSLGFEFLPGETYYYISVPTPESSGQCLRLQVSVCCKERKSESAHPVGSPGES

[2] = target: T1, human EFNA4 expressed on cells; experiment: flow cytometry, MX-1 breast cells (endogenous EFNA4), 10 µg/ml antibody
[3] = target: T1, human EFNA4 expressed on cells; experiment: flow cytometry, Z138 mantle cell lymphoma cells (endogenous EFNA4), 10 µg/ml antibody
[4] = target: T1, human EFNA4 expressed on cells; experiment: flow cytometry, HCC202 breast cells (endogenous EFNA4), 10 µg/ml antibody
[5] = target: T2, recombinant rat EFNA4 extracellular domain fused to a histidine tag (rat, UniProt D3ZEN1 26-173); experiment: SPR (BIAcore 2000), recombinant EFNA4 ECD-His
T2 construct: extracellular domain; also called rat antigen; not shown: histidine tag
T2 sequence: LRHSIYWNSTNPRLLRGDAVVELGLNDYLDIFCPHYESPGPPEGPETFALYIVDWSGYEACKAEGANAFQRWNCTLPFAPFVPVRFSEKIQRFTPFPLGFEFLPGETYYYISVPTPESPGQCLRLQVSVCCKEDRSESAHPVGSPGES

[6] = target: T3, recombinant human EFNA4 extracellular domain fused to a histidine tag (human, UniProt P52798 26-170); experiment: SPR (BIAcore 2000), recombinant EFNA4 ECD-His
T3 construct: also called hEFNA4-ECD-His; not shown: histidine tag
T3 sequence: T1 sequence

[7] = target: T4, recombinant cynomolgus monkey EFNA4 extracellular domain fused to a histidine tag (cynomolgus monkey, UniProt A0A2K5U3S7 84-228); experiment: SPR (BIAcore 2000), recombinant EFNA4 ECD-His
T4 construct: extracellular domain; not shown: histidine tag
T4 sequence: T1 sequence with L1V, Y69F

[8] = target: T1, human EFNA4 expressed on cells; experiment: cell-based or functional assay
[9] = target: T5, Ephrin-A1-His (R&D) (UniProt P20827 19-182); experiment: direct ELISA, Ephrin-A1-His coated on the plate, biotin-labeled huE22, streptavidin-HRP, OD450
T5 construct: also called Ephrin-A1 (EFNA1); EFNA1; not shown: His tag
T5 sequence (looked up): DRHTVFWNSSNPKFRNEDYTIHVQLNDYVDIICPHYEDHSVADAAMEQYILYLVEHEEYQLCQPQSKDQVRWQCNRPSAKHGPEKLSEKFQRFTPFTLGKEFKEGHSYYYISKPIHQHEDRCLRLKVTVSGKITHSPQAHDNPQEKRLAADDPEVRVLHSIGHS

[10] = target: T6, Ephrin-A4-huFc (R&D) (human, UniProt P52798 26-170); experiment: direct ELISA, Ephrin-A4-huFc coated on the plate, biotin-labeled huE22, streptavidin-HRP, OD450
T6 construct: bought reagent; also called Ephrin-A4 (EFNA4); EFNA4; not shown: human Fc
T6 sequence: T1 sequence

[11] = target: T1, human EFNA4 expressed on cells; experiment: cell-based or functional assay; remark: listed apart in the source
[12] = target: T7, human EFNA4 antigen (ephrin-A4 ligand) (human, UniProt P52798 26-170); experiment: Hu Ag Affinity (Humanized mAb); method not stated
T7 construct: also called Hu Ag
T7 sequence: T1 sequence

[13] = target: T8, Ephrin-A3-huFc (R&D) (UniProt P52797 23-214, limits assumed); experiment: direct ELISA, Ephrin-A3-huFc coated on the plate, biotin-labeled huE22, streptavidin-HRP, OD450
T8 construct: also called Ephrin-A3 (EFNA3); EFNA3; not shown: human Fc
T8 sequence (looked up): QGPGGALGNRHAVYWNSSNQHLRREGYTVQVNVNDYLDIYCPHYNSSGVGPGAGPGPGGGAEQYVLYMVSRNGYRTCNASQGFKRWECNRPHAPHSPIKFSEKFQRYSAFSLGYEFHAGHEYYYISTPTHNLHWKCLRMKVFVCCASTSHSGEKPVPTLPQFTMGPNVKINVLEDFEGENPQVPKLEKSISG

[14] = target: T9, Ephrin-A5-huFc (R&D) (UniProt P52803 21-203); experiment: direct ELISA, Ephrin-A5-huFc coated on the plate, biotin-labeled huE22, streptavidin-HRP, OD450
T9 construct: also called EFNA5; not shown: human Fc
T9 sequence (looked up): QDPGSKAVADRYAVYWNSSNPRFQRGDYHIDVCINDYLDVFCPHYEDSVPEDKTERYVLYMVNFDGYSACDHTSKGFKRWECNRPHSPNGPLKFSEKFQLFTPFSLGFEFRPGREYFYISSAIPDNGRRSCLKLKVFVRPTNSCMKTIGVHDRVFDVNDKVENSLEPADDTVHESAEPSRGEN

[15] = target: T1, human EFNA4 expressed on cells; experiment: cell-based or functional assay; remark: listed apart in the source
[16] = target: T8, Ephrin-A3-huFc (R&D); experiment: direct ELISA, Ephrin-A3-huFc coated on the plate, biotin-labeled huE47, streptavidin-HRP, OD450
Method: (§1) Antibody binding was determined by direct ELISA with Ephrin-A1-His, Ephrin-A3-huFc, Ephrin-A4-huFc and Ephrin-A5-huFc (all from R&D) coated on BioOne Microlon (Greiner) plates in PBS overnight at 4° C.

[17] = target: T5, Ephrin-A1-His (R&D); experiment: direct ELISA, Ephrin-A1-His coated on the plate, biotin-labeled huE47, streptavidin-HRP, OD450
Method: as §1

[18] = target: T10, monomeric human Ephrin-A4 (human), P52798; experiment: SPR (BIAcore 2000), Eph receptor captured via anti-human antibody capture kit, monomeric human Ephrin-A4 12-400 nM as analyte, steady state affinity fit; conditions: remark: other sources report otherwise
T10 chain: T1 sequence

Non-binding control IgG (antibody)
Mean Channel Fluorescent (MCF) [1]: 7.2 | Mean Channel Fluorescent (MCF) [2]: 3.6 | Mean Channel Fluorescent (MCF) [3]: 7.4 | Mean Channel Fluorescent (MCF) [4]: 15.6

B1: humanized anti-EFNA4 antibody huE22 (antibody, human IgG1, kappa, V domains shown)
VH: QVQLVQSGAEVKKPGASVKVSCKASGYTFTGYYIHWVRQAPGQGLEWMGWIYPGNFNTKYNERFKGRVTMTTDTSTSTAYMELRSLRSDDTAVYYCAREDGSPYYAMDYWGQGTSVTVSS
VL: DIVMTQTPLSLSVTPGQPASISCRSSQSLVHSNGNTFLYWYLQKPGQSPQLLIYRVSNRFSGVPDRFSGSGSGTDFTLKISRVEAEDVGVYYCFQATHVPWTFGGGTKVEIKR
notes: human IgG1 / kappa; also called huE22 mAb; unconjugated huE22
binding result [5]: no binding (tested: 400 nM antigen) | Kd [6]: 1.7 nM | koff [6]: 0.0033 s⁻¹ | kon [6]: 1.9e+06 M⁻¹ s⁻¹ | Kd [7]: 2.1 nM | koff [7]: 0.0078 s⁻¹ | kon [7]: 3.8e+06 M⁻¹ s⁻¹ | Saporin-mediated cytotoxicity IC50 (MTS viability), HEK293T parent cells, huE22 plus saporin-conjugated anti-human Fab [8]: 174 ng/mL | Saporin-mediated cytotoxicity IC50 (MTS viability), HEK293T-EFNA4 cells, huE22 plus saporin-conjugated anti-human Fab [8]: 3 ng/mL | binding result [9]: no binding (tested: 1000 ng/ml) | EC50 (read off the curve) [10]: ~4 ng/mL | specificity of saporin-mediated cytotoxicity, HEK293T-EFNA4 over HEK293T parental cells [11]: ~60 fold | Kd [12]: 3.8 nM | binding result [13]: no binding (tested: 1000 ng/ml) | binding result [14]: no binding (tested: 1000 ng/ml)

B2: huE22-AcBut-CM antibody-drug conjugate (antibody, V domains shown)
VH: B1 VH
VL: B1 VL
modifications: AcBut-N-acetyl-gamma-calicheamicin dimethyl hydrazide (AcBut-CM) conjugated via lysine residues (sites not given); average DAR about 3 to 5
notes: also called huE22-AcBut-CM ADC; huE22-ActBut-CM
binding result [5]: no binding (tested: 400 nM antigen) | Kd [6]: 2.3 nM | koff [6]: 0.0061 s⁻¹ | kon [6]: 2.6e+06 M⁻¹ s⁻¹ | Kd [7]: 2.7 nM | koff [7]: 0.011 s⁻¹ | kon [7]: 4.2e+06 M⁻¹ s⁻¹ | Anti-EFNA4-AcBut-CM cytotoxicity IC50 (MTS viability, 96 h), HEK293T-EFNA4 cells [15]: 1 ng/mL

B3: humanized anti-EFNA4 antibody huE47 (antibody, human IgG1, kappa, V domains shown)
VH: QVQLVQSGAEVKKPGASVKVSCKASGYTFTYFYMNWVRQAPGQGLEWVGQINPNNGGTAYAQKFQGRVTMTRDTSTSTVYMELSSLRSEDTAVYYCARWVGTHYFDYWGQGTTLTVSS
VL: EIVLTQSPATLSLSPGERATLSCRASQSVSSSSYTYIHWYQQKPGQAPRLLINFASNLESGIPARFSGSGSGTDFTLTISSLEPEDFAVYYCQHSWEIPPTFGGGTKLEIKR
notes: human IgG1 / kappa
binding result [16]: no binding (tested: 1000 ng/ml) | Kd [12]: < 0.1 nM | binding result [17]: no binding (tested: 1000 ng/ml)

B4: recombinant EphB3 receptor (commercially available), P54753 34-559 (receptor, UniProt P54753 34-559, looked up)
chain: GCRALEETLMDTKWVTSELAWTSHPESGWEEVSGYDEAMNPIRTYQVCNVRESSQNNWLRTGFIWRRDVQRVYVELKFTVRDCNSIPNIPGSCKETFNLFYYEADSDVASASSPFWMENPYVKVDTIAPDESFSRLDAGRVNTKVRSFGPLSKAGFYLAFQDQGACMSLISVRAFYKKCASTTAGFALFPETLTGAEPTSLVIAPGTCIPNAVEVSVPLKLYCNGDGEWMVPVGACTCATGHEPAAKESQCRPCPPGSYKAKQGEGPCLPCPPNSRTTSPAASICTCHNNFYRADSDSADSACTTVPSPPRGVISNVNETSLILEWSEPRDLGGRDDLLYNVICKKCHGAGGASACSRCDDNVEFVPRQLGLTERRVHISHLLAHTRYTFEVQAVNGVSGKSPLPPRYAAVNITTNQAAPSEVPTLRLHSSSGSSLTLSWAPPERPNGVILDYEMKYFEKSEGIASTVTSQMNSVQLDGLRPDARYVVQVRARTVAGYGQYSRPAEFETTSERGSGAQQLQEQLPL
Kd [18]: 108 nM

B5: humanized anti-EFNA4 antibody huE15 (antibody, human IgG1, V domains shown)
VH: EVQLVESGGGLVKPGGSLRLSCAASGFTFSTYGMSWVRQAPGKGLEWVATISSGGTYTYYPDSVKGRFKISRDNAKNSLYLQMNSLRAEDTAVYYCTRHDPNDGYYFLFAYWGQGTLVTVSS
VL: EIVLTQSPGTLSLSPGERATLSCKASQSVGNNVAWYQQKPGQAPRLLIYYASNRYTGIPDRFSGSGSGTDFTLTISRLEPEDFAVYYCQQHYSSPLTFGAGTKLEIK
Kd [12]: 4.8 nM

B6: recombinant EphA1 receptor (commercially available), P21709 26-547 (receptor, UniProt P21709 26-547, looked up)
chain: KEVTLMDTSKAQGELGWLLDPPKDGWSEQQQILNGTPLYMYQDCPMQGRRDTDHWLRSNWIYRGEEASRVHVELQFTVRDCKSFPGGAGPLGCKETFNLLYMESDQDVGIQLRRPLFQKVTTVAADQSFTIRDLVSGSVKLNVERCSLGRLTRRGLYLAFHNPGACVALVSVRVFYQRCPETLNGLAQFPDTLPGPAGLVEVAGTCLPHARASPRPSGAPRMHCSPDGEWLVPVGRCHCEPGYEEGGSGEACVACPSGSYRMDMDTPHCLTCPQQSTAESEGATICTCESGHYRAPGEGPQVACTGPPSAPRNLSFSASGTQLSLRWEPPADTGGRQDVRYSVRCSQCQGTAQDGGPCQPCGVGVHFSPGARGLTTPAVHVNGLEPYANYTFNVEAQNGVSGLGSSGHASTSVSISMGHAESLSGLSLRLVKKEPRQLELTWAGSRPRSPGANLTYELHVLNQDEERYQMVLEPRVLLTELQPDTTYIVRVRMLTPLGPGPFSPDHEFRTSPPVSRGLTGGE
Kd [18]: 414 nM

Source: patent publication US20180296691A1 (Pfizer, published 2018)
